Measurements reported in patent US20260063625A1, “COMPOSITIONS FOR AND METHODS OF DETECTING FOOD TOXINS” (priority 2022, published 2026).
Positions count from the first letter of the chain named. Names and notes keep the numbering of the source.

B1: MaSxph: Saxiphilin of Mantella aurantiaca, Golden mantella, SEQ ID NO:3 (protein, listed as Mantella aurantiaca)
chain: MALTFQTALYFTIIGLSFVTSSARDVRWCVISDLEQKKCNDLVGSCKVSGITLVCVHRSSTENCMTAIRDEQADAMFLDSGDVYKASMSPYNLKPIIAESYSSHKECLKKRQEALGGANVLGQFVPQCDEKGSYQPQQCYGSTGHCWCVNAIGEEIVGTKTQPGQTQATCERHDQTKCLKDRQKALAKKMIGGFVPQCDEKGNFKPRQCHGSTGYCWCTNANGEKIAATNTPPQQSPPTCERHDLDSCHYAVAVVKKSSIFQFNQLKGKRSCHSGVSKTDGWKAPVSVLVDKNLLSWDRAAKESIEKAVSKFFSDSCIPGATETNLCNQCMGEGGKKCMSSHDEPYYGDHGAFRCLKEDKGDVAFLKNTVLSDTHSEDYELLCPDNTRKPLNKYKECNLGKVPADAVVTRKSGDKIKDINDFLLEAQKKHCQLFSSAHGKDLMFDDSTTQLSLLPPEVDVFFFLGVQWLNTMKTLTADVKPPSKNKVRWCTVNNLEKMKCDDWSAVSGGAIECTEASSPEHCIKQIVKGEADAVTLDVQYMYEALKCGLLPAVEEYHNKDDFGPCKTPGSEIKDFGAKRAVALVKKSNKDINWHNLKGKKSCHTGVGDQAGWIIPVGLISRQIDNCNIDSFFSESCAPGSDTTSNFCKLCIGDPSNPMANTKCSLSDKEAYHGNEGAIRCLVEKGDVAFVHHTAVFENTDGKNPAEWAANLKSEDFEILCLDGSRAPVSNYMTCRLSGVPPRAIVTREESVSDVVRILINQQSLFGRNGFEKDMFQMFSSNKGQNLLFNDGTQCLIEFDRQPRGIMEDYFGKPYYNAVYNTSKCVLPSELTSACTFKHC
B2: RiSxph: Saxiphilin of Ranitomeya imitator, Mimic poison frog, SEQ ID NO:6 (protein)
chain: MRRSSYAASQEMRMTLRVLLCLCLWALSSAAPNTRNVRWCVTSDTEEQKCNDLVTSCHVDEILLICVKKSSTEDCVRAISNGEADAISLDSKDVYKASLDPFNLKPIMTEAYSESEHTPCMRHRQSVLGGKIMKIGAFVPKCDEKGNYVPKQCHGSTGYCWCLNENGEEIEGTRTPPGNPGLTCENKANKPPCLKERQKLLSAKPSPAVFVPECDEKGNYRPQQSHVYSWCVDEYGEEVFGSRSFPGKPPKPCEASGETPCIKERNKVLSAAEPLLGAFVPDCDEKGYFSPLQSHGSTGYSWCVTKNGDEIKGTRTGPGQSPPTCEVPAPVTLHYAVAVVKKSSSFHLDQLKGKRSCHSAVGEAAGWVAPLNVLLKKKLLLWEEPEPKTIEKVASEIFSASCAPGAQEANLCEQCAGQEDKCTRGPGEPYYGDEGAFRCLREDKGDVAFVEDTALTGQYSDNFELLCPDNTRRPLSQYKICNFGRIPRHAVVTRSSGDKMKDITEYLLQAQKKECKLFSSTHGKDLLFEDTTSALIALPSAMDTFLFLGPDLFNGMKTLNGARPPQVNQQIRWCPQSKNEKKKCDDWSSVSGGAIKCTEPSSGLECIKMILKGEAEAVNLDIEHSYIALKCGLLPSVDEYRNKDDLIPCQIPGSEYSEFGSYRIVALVKKTDKDLTWNNLQGKKSCHTRAGDMIGWNIPVYLISKKTKNCDLGSYFSQSCAPGSPIDSNLCKLCIGDPQNPQANTKCSISDKEAYYGHEGAIRCLVEKGDVAFVPHTAIFENTDGKNPALWAKDLKSTDFELLCPDGSRAPVNDYKKCKLSGIANQIAITRPESVKDVVRIIQNQQSLYGRTGSQKDIFQMFSSSYGQNLLFSDRTQCLVEFDRMLDRDIMDDYFGKPFHKHLLRDNDCLPKSALASACSFHH
modifications: Ranitomeya imitator
B3: OsSxph: Saxiphilin of Oophaga sylvatica, Little devil poison frog, SEQ ID NO:5 (protein, listed as Oophaga sylvatica)
chain: MRMTLQVLLCLCLLVLSSAAPNSRNVRWCVTSDTEEQKCNDLVTSCHVDEILLICVKKSSKEDCVRAISNGEADAISLDSKDVYKASLDPFNLKPIMTEAYSESEQTPCMRHRQSVLGGKKMIIGAFVPKCDEKGNYVPKQCHDSTGFCWCLNENGEEIEGTRTPPGNSGLTCENKANKPPCLKERQKLLSAKPSPAVFVPECDEKGNYRPEQSHVYSWCVDEYGEEVLGSRTFPGKPPKPCEASGETPCIKERNKVLSAAEPLPGAFVPDCDEKGYFSPLQFHGSTGHSWCVTKNGEEIKGTRTRPGQTPPTCDVPAPATLHYAVAVVKKSSSFQLDQLKGKRSCHSAVGEAAGWVAPLNVLLKKKFLLWEEPEQKSTEKVASEIFSASCAAGAQEANLCEQCAGQEDKCTRGPGEPYYGDEGAIRCLRDDKGDVAFVEDTALTGQYSDNFELLCPDNTRRPLSQYKICNFGSVPRHAVVTRSTGDKMKEITEYLLQAQKKECKLFSSTHGKDLLFEDTTSALIALPSGMDTFLFLGPDLFNGMKTLNGAHPPRVKQKIRWCPQNKNEKKKCDDWSSVSGGSIKCTEPSSALECIKMILKDEADAVNLDAEHAYTALKCGLLPSLEEYRNKDDLIVCQIPGAEYSEFGSYRIVALVKKTDKDITWNNLQGKKSCHTHVGDMIGWNIPVYLISKKTKNCDLGSYFSQSCAPGSPIDSNLCKLCIGDPQNTEANTKCSLSDKEAYYGNEGAVRCLVETGDVAFVPHTAVFENTDGKNPALWAKDLKSTDFELLCPDGSRAPVSDYKKCKLSGIANHVTVTRPESVKDVVRITQNQESLYGRTGSQKDIFQMFSSSYGQNLLFNDRTQCLFEFDRMLDRDIMDDYLGKPFHKHLMSDNDCLPKSALATACSFHH
B4: F784Y: RcSxph mutant F784Y (protein)
chain: MAPTFQTALFFTIISLSFAAPNAKQVRWCAISDLEQKKCNDLVGSCNVPDITLVCVLRSSTEDCMTAIKDGQADAMFLDSGEVYEASKDPYNLKPIIAEPYSSNRDLQKCLKERQQALAKKMIGHYIPQCDEKGNYQPQQCHGSTGHCWCVNAMGEKISGTNTPPGQTRATCERHELPKCLKERQVALGGDEKVLGRFVPQCDEKGNYEPQQFHGSTGYSWCVNAIGEEIAGTKTPPGKIPATCQKHDLVTTCHYAVAMVKKSSAFQFNQLKGKRSCHSGVSKTDGWKALVTVLVEKKLLSWDGPAKESIQRAMSKFFSVSCIPGATQTNLCKQCKGEEGKNCKNSHDEPYYGNYGAFRCLKEDMGDVAFLRSTALSDEHSEVYELLCPDNTRKPLNKYKECNLGTVPAGTVVTRKISDKTEDINNFLMEAQKRQCKLFSSAHGKDLMFDDSTLQLALLSSEVDAFLYLGVKLFHAMKALTGDAHLPSKNKVRWCTINKLEKMKCDDWSAVSGGAIACTEASCPKGCVKQILKGEADAVKLEVQYMYEALMCGLLPAVEEYHNKDDFGPCKTPGSPYTDFGTLRAVALVKKSNKDINWNNIKGKKSCHTGVGDIAGWVIPVSLIRRQNDNSDIDSFFGESCAPGSDTKSNLCKLCIGDPKNSAANTKCSLSDKEAYYGNQGAFRCLVEKGDVAFVPHTVVFENTDGKNPAVWAKNLKSEDFELLCLDGSRAPVSNYKSCKLSGIPPPAIVTREESISDVVRIVANQQSLYGRKGFEKDMFQLFSSNKGNNLLFNDNTQCLITYDRQPKDIMEDYFGKPYYTTVYGASRSAMSSELISACTIKHC
B5: F784L: RcSxph mutant F784L (protein)
chain: B4 chain with Y803L
B6: F784C: RcSxph mutant F784C (protein)
chain: B4 chain with Y803C
B7: F784S: RcSxph mutant F784S (protein)
chain: B4 chain with Y803S
B8: F784A: RcSxph mutant F784A (protein)
chain: B4 chain with Y803A
B9: D785A: RcSxph mutant D785A (protein)
chain: B4 chain with Y803F, D804A
B10: Q787E: RcSxph mutant Q787E (protein)
chain: B4 chain with Y803F, Q806E
B11: Y558F: RcSxph mutant Y558F (protein)
chain: B4 chain with Y577F, Y803F
B12: I782F: RcSxph mutant I782F (protein)
chain: B4 chain with I801F, Y803F
B13: I782A/Y558A: RcSxph double mutant I782A/Y558A (protein)
chain: B4 chain with Y577A, I801A, Y803F
B14: K789A: RcSxph mutant K789A (protein)
chain: B4 chain with Y803F, K808A
B15: T563A: RcSxph mutant T563A (protein)
chain: B4 chain with T582A, Y803F
B16: Y795A: RcSxph mutant Y795A (protein)
chain: B4 chain with Y803F, Y814A
B17: Q787A: RcSxph mutant Q787A (protein)
chain: B4 chain with Y803F, Q806A

Assay: Fluorescence polarization (FP) binding to fluorescein labeled STX
Conditions: […]G = RT ln (Kd(XSxph)/Kd(RcSxph)); T = 298K
Experimental: […]; Measurements were performed at 25° C. on a Synergy H1 microplate reader (BioTek) using the polarization filter setting (excitation 485 nm, emission 528 nm). […]. The dissociation constants were calculated using GraphPad Prism by fitting fluorescence millipolarization (mP=P·10^−3, where P is polarization) as a function of Sxph concentration using the equation: P={(Pbound−Pfree) [Sxph]/(Kd+[Sxph])}+Pfree, where P is the polarization measured at a given Sxph concentration, Pfree is the […], and Pbound is the maximum polarization of Sxph bound by F-STX (Rossi and Taylor, Hansen et al.).

Row | Molecule | […]G (kcal mol^−1) relative to RcSxph
1 | B1 | -1.73 kcal/mol
2 | B2 | -1.32 kcal/mol
3 | B3 | -1.32 kcal/mol

Same assay, conditions: […]G = RT ln (KdSxph mutant/KdSxph); T = 298K

Row | Molecule | […]G (kcal mol^−1) relative to wild-type RcSxph
4 | B4 | 0.37 kcal/mol
5 | B5 | 1.11 kcal/mol
6 | B6 | 3.15 kcal/mol
7 | B7 | 3.60 kcal/mol
8 | B8 | 2.71 kcal/mol
9 | B9 | 0.57 kcal/mol
10 | B10 | -0.09 kcal/mol
11 | B11 | -0.10 kcal/mol
12 | B12 | 0.46 kcal/mol
13 | B13 | -1.07 kcal/mol
14 | B14 | -0.22 kcal/mol
15 | B15 | -0.20 kcal/mol
16 | B16 | 0.08 kcal/mol
17 | B17 | 0.25 kcal/mol
